In US20230374153A1 (PARADIGM IMMUNOTERAPEUTICS, published 2023):
Read-outs that look alike come from different tables or passages of the source.

Columns and labels:
[1] = target: SARS-CoV-2 Omicron BA.5 (live virus; spike protein) (SARS-CoV-2, UniProt P0DTC2 14-1273); assay: cell-based or functional assay
[2] = target: T1, SARS-CoV-2 (COVID-19) S protein RBD, His Tag B.1.1.529/Omicron (ACRO Biosystems Cat. No. SPD-052H3) (SARS-CoV-2, UniProt P0DTC2 319-537); assay: SPR (Biacore T200, ACRO Biosystems), 1:1 model
T1 construct: domain: RBD; also called Omicron RBD only; Omicron variant RBD

[3] = target: T2, SARS-CoV-2 Spike Trimer, His Tag B.1.1.529/Omicron (ACRO Biosystems Cat. No. SPN-052Hz) (SARS-CoV-2, UniProt P0DTC2 16-1213); assay: SPR (Biacore T200, ACRO Biosystems), 1:1 model
T2 construct: also called Omicron BA.1 spike protein trimer

[4] = target: T3, SARS-CoV-2 Delta variant B.1.617.2, RBD only (SARS-CoV-2, UniProt P0DTC2 319-537); assay: SPR (Biacore T200, ACRO Biosystems), 1:1 model
T3 construct: domain: RBD; also called RBD of the Delta B.1.617.2 variant

[5] = target: T2, SARS-CoV-2 Spike Trimer, His Tag …
[6] = target: T2, SARS-CoV-2 Spike Trimer, His Tag …; remark: listed apart in the source
[7] = target: T2, SARS-CoV-2 Spike Trimer, His Tag …; remark: listed apart in the source
[8] = target: SARS-CoV-2 Omicron BQ.1.1 spike protein trimer (SARS-CoV-2, UniProt P0DTC2 16-1213); assay: SPR (Biacore 8K, ACRO Biosystems), 1:1 model
[9] = target: SARS-CoV-2 Omicron BA4.6 spike protein trimer (SARS-CoV-2, UniProt P0DTC2 16-1213); assay: SPR (Biacore 8K, ACRO Biosystems), 1:1 model
[10] = target: SARS-CoV-2 Omicron XBB.1 spike protein trimer (SARS-CoV-2, UniProt P0DTC2 16-1213); assay: SPR (Biacore 8K, ACRO Biosystems), 1:1 model
[11] = target: T4, SARS-CoV-2 Omicron BA.2.75 spike protein trimer (SARS-CoV-2, UniProt P0DTC2 16-1213); assay: SPR (Biacore T200, ACRO Biosystems), 1:1 model
T4 construct: also called Omicron subvariant BA2.75 spike trimer

[12] = target: SARS-CoV-2 Omicron BA.5 spike protein trimer (SARS-CoV-2, UniProt P0DTC2 16-1213); assay: SPR (Biacore T200, ACRO Biosystems), 1:1 model

| Binder | IC50 of inhibition of viral replication (human airway organoids) [1] | Kd [2] | Kd [3] | Kd [4] | Kd [5] | koff [5] | kon [5] | Kd [6] | koff [7] | kon [7] | Kd [8] | Kd [9] | Kd [10] | Kd [11] | Kd [12] |
| --- | --- | --- | --- | --- | --- | --- | --- | --- | --- | --- | --- | --- | --- | --- | --- |
| ACE2 LVE IgG Fc STR chimeric antibody (LiVE) (Fc fusion) QSTIEEQAKLFLDKFNVEAEDLFYQSSLASWNYNTNITEENVQNMNNAGDKWSAFLKEQSTLAQMYPLQEIQELTVKLQLQALQQNGSSVLSEDKSKRLNTILNTMSTIYSTGKVCNPDNPQECLLLEPGLNEIMANSLDYNERLWAWESWRSEVGKQLRPLYEEYVVLKNEMARANHYEDYGDYWRGDYEVNGVDGYDYSRGQLIEDVEHTFEEIKPLYEHLHAYVRAKLMNAYPSYISPIGCLPAHLLGDMWGRFWTNLYSLTVPFGQKPNIDVTDAMVDQAWDAQRIFKEAEKFFVSVGLPNMTQGFWENSMLTDPGNVQKAVCHPTAWDLGKGDFRILMCTKVTMDDFLTAHHEMGHIQYDMAYAAQPFLLRNGANEGFHEAVGEIMSLSAATPKHLKSIGLLSPDFQEDNETEINFLLKQALTIVGTLPFTYMLEKWRWMVFKGEIPKDQWMKKWWEMKREIVGVVEPVPHDETYCDPASLFHVSNDYSFIRYYTRTLYQFQFQEALCQAAKHEGPLHKCDISNSTEAGQKLFNMLRLGKSEPWTLALENVVGAKNMNVRPLLNYFEPLFTWLKDQNKNSFVGWSTDWSPYADQSIKVRISLKSALGDKAYEWNDNEMYLFRSSVAYAMRQYFLKVKNQMILFGEEDVRVANLKPRISFNFFVTAPKNVSDIIPRTEVEKAIRMSRSRINDAFRLNDNSLEFLGIQPTLGPPNQPPVSGGGGSGGGGSDKTHTCPPCPAPESTRGPSVFLFPPKPKDTLMISRTPEVTCVVVDVSHEDPEVKFNWYVDGVEVHNAKTKPREEQYNSTYRVVSVLTVLHQDWLNGKEYKCKVSNKALPAPIEKTISKAKGQPREPQVYTLPPSRDELTKNQVSLTCLVKGFYPSDIAVEWESNGQPENNYKTTPPVLDSDGSFFLYSKLTVDKSRWQQGNVFSCSVMHEALHNHYTQKSLSLSPGK | 0.0299 mg/L | 0.308 nM | 0.144 nM | 0.554 nM | 0.144 nM | 0.000153 s⁻¹ | 1.06e+06 M⁻¹ s⁻¹ | 0.114 nM |  |  |  |  |  |  |  |
| ACE2 LVE IgG Fc STR YTE chimeric antibody (LiVE Longer) (Fc fusion) QSTIEEQAKLFLDKFNVEAEDLFYQSSLASWNYNTNITEENVQNMNNAGDKWSAFLKEQSTLAQMYPLQEIQELTVKLQLQALQQNGSSVLSEDKSKRLNTILNTMSTIYSTGKVCNPDNPQECLLLEPGLNEIMANSLDYNERLWAWESWRSEVGKQLRPLYEEYVVLKNEMARANHYEDYGDYWRGDYEVNGVDGYDYSRGQLIEDVEHTFEEIKPLYEHLHAYVRAKLMNAYPSYISPIGCLPAHLLGDMWGRFWTNLYSLTVPFGQKPNIDVTDAMVDQAWDAQRIFKEAEKFFVSVGLPNMTQGFWENSMLTDPGNVQKAVCHPTAWDLGKGDFRILMCTKVTMDDFLTAHHEMGHIQYDMAYAAQPFLLRNGANEGFHEAVGEIMSLSAATPKHLKSIGLLSPDFQEDNETEINFLLKQALTIVGTLPFTYMLEKWRWMVFKGEIPKDQWMKKWWEMKREIVGVVEPVPHDETYCDPASLFHVSNDYSFIRYYTRTLYQFQFQEALCQAAKHEGPLHKCDISNSTEAGQKLFNMLRLGKSEPWTLALENVVGAKNMNVRPLLNYFEPLFTWLKDQNKNSFVGWSTDWSPYADQSIKVRISLKSALGDKAYEWNDNEMYLFRSSVAYAMRQYFLKVKNQMILFGEEDVRVANLKPRISFNFFVTAPKNVSDIIPRTEVEKAIRMSRSRINDAFRLNDNSLEFLGIQPTLGPPNQPPVSGGGGSGGGGSDKTHTCPPCPAPESTRGPSVFLFPPKPKDTLYITREPEVTCVVVDVSHEDPEVKFNWYVDGVEVHNAKTKPREEQYNSTYRVVSVLTVLHQDWLNGKEYKCKVSNKALPAPIEKTISKAKGQPREPQVYTLPPSRDELTKNQVSLTCLVKGFYPSDIAVEWESNGQPENNYKTTPPVLDSDGSFFLYSKLTVDKSRWQQGNVFSCSVMHEALHNHYTQKSLSLSPGK | 0.0269 mg/L | 0.402 nM | 0.073 nM |  |  |  |  | 0.0734 nM | 0.000117 s⁻¹ | 1.59e+06 M⁻¹ s⁻¹ | 0.00181 nM | 0.845 nM | 0.215 nM | 0.000133 nM | 0.00543 nM |
